According to patent US20140271651A1 (AbbVie / Abbott, published 2014):

T1: Aleuria aurantia lectin (Aleuria aurantia, UniProt P18891 2-313)
T1 construct: also called AAL; free AAL
T1 sequence (looked up): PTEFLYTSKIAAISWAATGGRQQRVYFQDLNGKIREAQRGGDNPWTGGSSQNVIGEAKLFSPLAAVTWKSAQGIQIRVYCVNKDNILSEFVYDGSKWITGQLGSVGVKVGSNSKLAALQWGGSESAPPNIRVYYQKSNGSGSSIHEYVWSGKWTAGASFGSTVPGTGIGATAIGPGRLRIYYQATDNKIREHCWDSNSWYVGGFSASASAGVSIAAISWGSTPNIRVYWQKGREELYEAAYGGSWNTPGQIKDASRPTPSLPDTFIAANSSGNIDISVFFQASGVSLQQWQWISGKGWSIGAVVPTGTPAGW

T2: E. coli expressed human GP73 (amino acids 63 to 400) with C-terminal 6xHis tag (human, UniProt Q8NBJ4 64-401)
T2 construct: No human Fc, not glycosylated; also called GP73 produced in E. coli; E. coli GP73
T2 sequence: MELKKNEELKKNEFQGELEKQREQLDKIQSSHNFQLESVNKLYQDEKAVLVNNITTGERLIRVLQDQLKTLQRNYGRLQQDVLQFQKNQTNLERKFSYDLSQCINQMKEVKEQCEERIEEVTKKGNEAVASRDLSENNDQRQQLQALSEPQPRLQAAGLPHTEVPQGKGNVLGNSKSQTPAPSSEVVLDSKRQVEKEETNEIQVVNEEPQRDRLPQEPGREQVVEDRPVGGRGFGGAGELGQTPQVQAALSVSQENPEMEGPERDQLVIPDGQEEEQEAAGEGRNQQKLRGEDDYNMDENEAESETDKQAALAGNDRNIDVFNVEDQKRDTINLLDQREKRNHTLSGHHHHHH

B1: anti-GP73 monoclonal antibody 1A-3187 (antibody, V domains shown)
VH: QGQLQQSGAELMKPGASVKISCKATGYTIRSYWIEWVKQRPGHGLEWIGEILPGSGNTNYNEKFKGTATFTADTSSNTVYLHLSSLTSEDSAVYYCANGRGSYRYHWFAYWGQGTLVTVSP
VL: DIVLTQSPASLAVSLGQRATISCKASQSVDYDGDSYMNWYQQKPGQPPKVLIYAASNLESGIPARFSGSGSGTDFTLNIHPVEEEDAATYYCQQSNEDPYTFGGGTKLEMKR
notes: Biotin labelled in some assays
B2: GP73-hFc (human GP73 amino acids 63 to 400 fused at the C-terminus to human IgG1 Fc) (Fc fusion)
chain: ELKKNEFQGELEKQREQLDKIQSSHNFQLESVNKLYQDEKAVLVNNITTGERLIRVLQDQLKTLQRNYGRLQQDVLQFQKNQTNLERKFSYDLSQCINQMKEVKEQCEERIEEVTKKGNEAVASRDLSENNDQRQQLQALSEPQPRLQAAGLPHTEVPQGKGNVLGNSKSQTPAPSSEVVLDSKRQVEKEETNEIQVVNEEPQRDRLPQEPGREQVVEDRPVGGRGFGGAGELGQTPQVQAALSVSQENPEMEGPERDQLVIPDGQEEEQEAAGEGRNQQKLRGEDDYNMDENEAESETDKQAALAGNDRNIDVFNVEDQKRDTINLLDQREKRNHTLRSVECPPCPAPPVAGPSVFLFPPKPKDTLMISRTPEVTCVVVDVSHEDPEVQFNWYVDGMEVHNAKTKPREEQFASTFRVVSVLTVVHQDWLNGKEYKCKVSNKGLPAPIEKTISKTKGQPREPQVYTLPPSREEMTKNQVSLTCLVKGFYPSDIAVEWESNGQPENNYKTTPPMLDSDGSFFLYSKLTVDKSRWQQGNVFSCSVMHEALHNHYTQKSLSLSPGK
notes: Expressed in HEK293F, CHO or HepG2 cells; the host is named under assay; also called HEK expressed GP73-hFc; CHO expressed GP73-hFc
B3: anti-GP73 monoclonal antibody 1A-4246 (antibody, V domains shown)
VH: EVMLVESGGGLVKPGGSLKLSCAASGFTFSSYAMSWVRLTPEKRLEWVATISSGSSYTYYPDSVKGRFTISRDNVKSTLYLQMSSLRSEDTAMYYCARNWDGELHYYAMDYWGQGTSVTVSS
VL: QIVLTQSPAIMSASLGERVTMTCTASSSVSSSYLHWYQQKPGSSPKLWVYSTSSLASGVPARFSGSGSGTSYSLTINNMEAEDAATYFCHQYHRSPYTFGGGTKLEIKR
notes: Biotin labelled in some assays; also called mAb 1A-4246; 1A-4246-Bt
B4: anti-GP73 monoclonal antibody 1B-3246 (antibody, V domains shown)
VH: DVKLVESGGGLVKPGGSLKLSCAASGFTFSSYTMSWVRQTPEKRLEWVATISRGGTYIYYPDSVKGRFTISRDNAKNTLYLQMSSLKSEDTAIYYCTREYFSGDTYDYFDYWGQGTTLTVSS
VL: EIVMTQAAFANPVTLGTSVSISCRSSKSLLHSNGITYLYWYLQKPGQSPQLLIYQMSNLASGVPDRFSSSGSGTDFTLRISRVEAEDVGIYYCAQNLELYTFGGGTKLEIKR
notes: Biotin labelled in some assays; also called mAb 1B-3246; 1B-3246-Bt

Columns and labels:
[1] = biological target: T3, bovine serum albumin (bovine, UniProt P02769 25-607); test: EIA, supernatant 1:25 captured on sheep anti-mouse IgG Fc, BSA in place of antigen
T3 construct: also called BSA
T3 sequence (P02769 25-607 limits assumed): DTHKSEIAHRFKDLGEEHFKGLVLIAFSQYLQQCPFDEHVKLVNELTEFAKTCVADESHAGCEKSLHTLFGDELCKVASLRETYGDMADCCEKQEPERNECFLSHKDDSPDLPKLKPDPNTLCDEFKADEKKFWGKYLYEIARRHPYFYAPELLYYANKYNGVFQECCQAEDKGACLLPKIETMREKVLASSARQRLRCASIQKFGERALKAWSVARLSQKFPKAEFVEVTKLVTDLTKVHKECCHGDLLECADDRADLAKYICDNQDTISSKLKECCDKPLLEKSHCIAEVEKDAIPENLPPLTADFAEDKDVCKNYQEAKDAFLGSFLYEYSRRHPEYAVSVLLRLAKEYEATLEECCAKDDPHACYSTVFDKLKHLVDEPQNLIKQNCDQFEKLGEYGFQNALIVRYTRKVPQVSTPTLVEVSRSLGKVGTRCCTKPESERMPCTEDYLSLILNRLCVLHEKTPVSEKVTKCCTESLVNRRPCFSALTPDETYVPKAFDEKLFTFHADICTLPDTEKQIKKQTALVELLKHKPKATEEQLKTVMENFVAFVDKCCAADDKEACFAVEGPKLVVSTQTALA
Protocol: (§1) Cell supernatant samples were analyzed for anti-GP73 antibodies by EIA. Sheep anti-mouse IgG Fc (Jackson Immunoresearch) was coated on 96 well micro-titer EIA plates at 1 μg/mL. After the capture reagent was coated on the solid phase, it was removed and the plates were blocked using a BSA/PBS block solution. The wells were washed with distilled water and cell supernatants were added to the blocked plates and allowed to incubate at room temperature for at least one hour. A mouse monoclonal antibody 14H4-23 (Drexel University) was used a positive control. The anti-mouse IgG Fc captured the anti-GP73 mouse antibody from the supernatant. Following the incubation, the supernatants were washed off using distilled water. An irrelevant mouse-human chimeric antibody was added to all wells and incubated at room temperature for 30 min to block any captured mouse antibodies that react with the human IgG Fc fusion protein linked to the GP73 antigen. The wells were washed with distilled water and GP73-hFc was added to the plates at 200 ng/mL and incubated for 30 min. Following this incubation, the antigen was washed from the plates using distilled water. Biotin labeled goat anti-GP73 was added to the plates at 200 ng/mL and incubated for 30 min at room temperature. The plates were washed and streptavidin-HRPO (Jackson Immunoresearch) (diluted to approximately 200 ng/mL) was added to the plates and allowed to incubate for 30 min. The plates were washed with distilled water and OPD substrate was used as the chromagen to generate signal. Plates were read at 492 nm and the results were analyzed.
Positive clones were expanded to 24 well plates in IMDM supplemented with 10% FBS and HT supplement. Following 5-14 days growth, the 24 well cultures were evaluated by EIA in the same manner as previously described, except the supernatant samples were titrated against GP73-hFc and BSA to eliminate non-specific protein binders. Once again the clones generating signal at least 3 times greater than background were considered positive and selected for further evaluation.

[2] = biological target: T3, bovine serum albumin; test: sandwich EIA, rabbit anti-GP73 coated 1 ug/mL, BSA background, supernatant 1:125, HRP goat anti-mouse IgG Fc
Protocol: as §1
(§2) The 24 well cultures were then evaluated by EIA for their ability to form a sandwich with the rabbit anti-GP73 used as a capture reagent coated directly on the solid phase. The same EIA protocol previously described was used, except rabbit anti-GP73 antibody was coated at 1 μg/mL, the GP73-hFc was tested at 200 ng/mL, and a HRP labeled goat anti-mouse IgG FC antibody was used as the conjugate reagent to generate signal.

[3] = biological target: T1, Aleuria aurantia lectin; test: EIA, GP73-hFc captured on donkey anti-human IgG Fc, biotin AAL pre-mixed with free fucose
Protocol: The biotin labeled anti-GP73 mAbs were tested to determine if they were sensitive to the presence of fucose on the GP73-hFc antigen by EIA. Aleuria Aurantia Lectin (AAL) (Vector Laboratories) binds fucose with a high degree of specificity. Donkey anti-human IgG Fc (Jackson Immunoresearch) was coated on 96 well micro titer EIA plates at approximately 1 μg/mL. After the capture reagent was coated on the solid phase, the capture reagent was removed and the plates were blocked for 30 min using Protein-Free T20 (TBS) Blocking Buffer (Thermo Scientific). The wells were washed with distilled water. A 200 ng/mL solution of GP73-hFc antigen was added to the blocked plates and allowed to incubate at room temperature for at least 45 min then washed with distilled water. Fucose was added to the wells of a separate non-absorbing microtiter plate in serial dilutions starting from 1000 μg/mL Biotin labeled anti-GP73 mAbs were added to the plates at predetermined concentrations for each mAb ranging from 50 to 2000 ng/mL and incubated for 45 min at room temperature. The mixture was added to the microtiter plates with the captured GP73-hFc and allowed to incubate for 15-20 min at room temperature. Biotin labeled AAL was used as a positive control for the assay and a biotin labeled irrelevant mAb was used as the negative control. […] Plates were read at 492 nm and the results were analyzed.

[4] = biological target: T2, E. coli expressed human GP73 (amino …); test: Western blot on E. coli expressed GP73 antigen
Protocol: The mammalian cell (HEK and CHO) expressed GP73-hFc or E. coli expressed GP73, as described above, were electrophoresed in a 4-20% SDS-PAGE gel. […] The nitrocellulose membrane was blocked with PBS buffer containing 5% non-fat dry milk and 0.05% Tween 20 for about 1 hr. The nitrocellulose membrane was incubated with an appropriate amount of anti-GP73 monoclonal antibody in 10 mL of 2.5% non-fat dry milk and 0.05% Tween 20 PBS buffer, pH 7.2. The nitrocellulose membranes were washed with 0.05% Tween 20/PBS, pH 7.2, incubated with goat anti-mouse IgG antibody conjugated with HRP for 1 hr at room temperature, and washed with 0.05% Tween 20/PBS buffer. Antibody bound to the GP73 protein was visualized by the addition of freshly prepared metal enhanced 3,3′-Diaminobenzidine in stable peroxide buffer (Pierce, Ill.).

[5] = biological target: B2; test: SPR Biacore 2000, mAb captured on rabbit anti-mouse IgG, HEK GP73-hFc analyte 0.412-100 nM, 1:1 fit
Protocol: First, an approximately 13,000-15,000 RU rabbit anti-mouse IgG Capture Biosensor was created by amine-coupling rabbit anti-mouse IgG antibody (GE Healthcare) to a CM5 biosensor chip (GE Healthcare) via EDC/NHS/ethanolamine chemistry provided in an Amine Coupling Kit (GE Healthcare) after pre-treating the biosensor with duplicate injections of 100 mM HCl, 50 mM NaOH, and 0.1% SDS. Purified GP73 antibody and antigen (HEK GP73-hFc) were diluted into a running buffer (hereinafter “running buffer”) composed of HBS-EP buffer (GE Healthcare) supplemented with 0.1% BSA and 0.1% CM-Dextran. Each GP73 antibody was diluted to 1 μg/mL. The GP73-hFc antigen was diluted to concentrations of 0.412 to 100 nM using a 3-fold dilution series assuming an oligomeric molecular weight of 490 kDa (Abbott Laboratories).
The GP73-hFc antigen program was as follows. After equilibrating the rabbit anti-mouse IgG Capture Biosensor for 3 min at 5 μL/minute with running buffer, GP73 antibody (7-14 μL) was injected over individual flow cells with one flow cell being left blank as a reference flow cell. The flow cells were washed with running buffer for 3 min at a flow rate of 60 μL/min. 150 μL of HEK293 expressed GP73-hFc antigen at a random concentration was injected across the biosensor. The biosensor was subsequently re-equilibrated with running buffer for 5 min at a flow rate of 60 μL/minute. All biosensor surfaces were regenerated with one 30 μL injection of 10 mM glycine, pH 1.7 (GE Healthcare), at a flow rate of 10 μL/minute. All concentrations of HEK293 expressed antigen were tested in duplicate. The binding kinetics (association and dissociation) were monitored via sensorgrams during antigen injection and running buffer re-equilibration. The sensorgrams were double-referenced and fit to a 1:1 binding model using Scrubber 2.0 software (BioLogic Software Pty Ltd., Australia) to determine association and dissociation rates, as well as overall KD. Standard errors of determined values are reported in parentheses with respect to the smallest number place value.

[6] = biological target: B2; test: sandwich EIA, rabbit anti-GP73 coated 1 ug/mL, GP73-hFc 200 ng/mL, supernatant 1:125, HRP goat anti-mouse IgG Fc
Protocol: as §1, §2

[7] = biological target: B2; test: EIA, supernatant mAb captured on sheep anti-mouse IgG Fc, GP73-hFc 200 ng/mL, biotin goat anti-GP73/streptavidin-HRPO; background 0.06
Protocol: as §1

Binder: B1
BSA Background OD (A492) [1]: 0.11 OD (A492)
BSA Background OD (A492) [2]: 0.09 OD (A492)

Binder: B2
binding result [3]: binds

Binder: B3
BSA Background OD (A492) [1]: 0.04 OD (A492)

Binder: B4
binding result [4]: binds
Kd [5]: 0.079 nM
koff [5]: 0.00025 s⁻¹
kon [5]: 3.18e+06 M⁻¹ s⁻¹
BSA Background OD (A492) [2]: 0.1 OD (A492)
GP73-hFc OD (A492) [6]: 0.79 OD (A492)
OD (A492) [7]: 1.48 OD (A492)
